# Measured values as given in paper PMC9525683, “Structural analysis of human CEACAM1 oligomerization” (Communications Biology, 2022).
# B1: human CEACAM1 IgV domain, wild type (tagless) (domain or fragment)
# chain: QLTTESMPFNVAEGKEVLLLVHNLPQQLFGYSWYKGERVDGNRQIVGYAIGTQQATPGPANSGRETIYPNASLLIQNVTQNDTGFYTLQVIKSDLVNEEATGQFHVY
# notes: carcinoembryonic antigen-related cell adhesion molecule 1 (CEACAM1), human, N-terminal IgV domain, non-glycosylated; The 15N-labelled form (M9 medium) was used for NMR, the unlabelled form for the crystals and UV spectroscopy; also called hCEACAM1 IgV; hCEACAM1 WT
# Target: the molecule itself
# Assay: crystal structure; tagless hCEACAM1 IgV at 15 mg/ml; sitting drop, 25 °C; 0.2 M ammonium sulfate, 0.1 M HEPES pH 7.5, 25% w/v PEG 3350; space group C121; 2.2 Å; three molecules in the asymmetric unit
protein,measurement,value
B1,binding result,binds
